Experimental data from IntAct's records for PubMed 23728178.

B1: Complement factor H-related protein 1 (Homo sapiens), Q03591 (parent)
chain: MWLLVSVILISRISSVGGEATFCDFPKINHGILYDEEKYKPFSQVPTGEVFYYSCEYNFVSPSKSFWTRITCTEEGWSPTPKCLRLCFFPFVENGHSESSGQTHLEGDTVQIICNTGYRLQNNENNISCVERGWSTPPKCRSTDTSCVNPPTVQNAHILSRQMSKYPSGERVRYECRSPYEMFGDEEVMCLNGNWTEPPQCKDSTGKCGPPPPIDNGDITSFPLSVYAPASSVEYQCQNLYQLEGNKRITCRNGQWSEPPKCLHPCVISREIMENYNIALRWTAKQKLYLRTGESAEFVCKRGYRLSSRSHTLRTTCWDGKLEYPTCAKR
partner: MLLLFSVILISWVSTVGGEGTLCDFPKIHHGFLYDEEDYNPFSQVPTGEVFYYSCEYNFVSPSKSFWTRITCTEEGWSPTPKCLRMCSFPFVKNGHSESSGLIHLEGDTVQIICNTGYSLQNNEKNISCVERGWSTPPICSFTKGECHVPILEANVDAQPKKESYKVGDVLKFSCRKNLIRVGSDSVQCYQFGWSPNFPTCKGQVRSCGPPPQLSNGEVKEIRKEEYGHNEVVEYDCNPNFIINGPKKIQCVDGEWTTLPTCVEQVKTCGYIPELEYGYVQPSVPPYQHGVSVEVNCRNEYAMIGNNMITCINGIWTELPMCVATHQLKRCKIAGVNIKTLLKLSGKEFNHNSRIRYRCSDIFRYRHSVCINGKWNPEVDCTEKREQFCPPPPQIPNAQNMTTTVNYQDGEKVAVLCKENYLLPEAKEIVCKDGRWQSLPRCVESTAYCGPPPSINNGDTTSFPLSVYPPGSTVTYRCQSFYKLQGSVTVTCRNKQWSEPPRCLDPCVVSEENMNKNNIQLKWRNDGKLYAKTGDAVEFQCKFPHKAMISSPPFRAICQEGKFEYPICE
B2: Complement factor H-related protein 1 (Homo sapiens), Q03591 (parent)
chain: B1 chain

Variants of: B1
Settings: with fhr5_human CFHR5, Q9BXR6

Variant | effect of a mutation on the interaction
MWLLVSVILISRISSVGGEATFCDFPKINHGILYDEEKYKPFSQVPTGEVFYYSCEYNFVSPSKSFWTRITCTEEGWSPTPKCLRLCFFPFVENGHSESSGQTHLEGDTVQIICNTGYRLQNNENNISCVERGWSTPPKCRSTDTSCVNPPTVQNAYIVSRQMSKYPSGERVRYQCRSPYEMFGDEEVMCLNGNWTEPPQCKDSTGKCGPPPPIDNGDITSFPLSVYAPASSVEYQCQNLYQLEGNKRITCRNGQWSEPPKCLHPCVISREIMENYNIALRWTAKQKLYLRTGESAEFVCKRGYRLSSRSHTLRTTCWDGKLEYPTCAKR [H157Y;L159V;E175Q] | with no effect

Variants of: B2
Settings: with fhr2_human CFHR2, P36980

Variant | effect of a mutation on the interaction
MWLLVSVILISRISSVGGEATFCDFPKINHGILYDEEKYKPFSQVPTGEVFYYSCEYNFVSPSKSFWTRITCTEEGWSPTPKCLRLCFFPFVENGHSESSGQTHLEGDTVQIICNTGYRLQNNENNISCVERGWSTPPKCRSTDTSCVNPPTVQNAYIVSRQMSKYPSGERVRYQCRSPYEMFGDEEVMCLNGNWTEPPQCKDSTGKCGPPPPIDNGDITSFPLSVYAPASSVEYQCQNLYQLEGNKRITCRNGQWSEPPKCLHPCVISREIMENYNIALRWTAKQKLYLRTGESAEFVCKRGYRLSSRSHTLRTTCWDGKLEYPTCAKR [H157Y;L159V;E175Q] | with no effect
